# Article PMC2614274
# T1: DNA polymerase III alpha subunit (PolIIIα), exonuclease-deficient (Thermus aquaticus, UniProt Q9XDH5 1-1220, D20N;D212N)
# T1 sequence: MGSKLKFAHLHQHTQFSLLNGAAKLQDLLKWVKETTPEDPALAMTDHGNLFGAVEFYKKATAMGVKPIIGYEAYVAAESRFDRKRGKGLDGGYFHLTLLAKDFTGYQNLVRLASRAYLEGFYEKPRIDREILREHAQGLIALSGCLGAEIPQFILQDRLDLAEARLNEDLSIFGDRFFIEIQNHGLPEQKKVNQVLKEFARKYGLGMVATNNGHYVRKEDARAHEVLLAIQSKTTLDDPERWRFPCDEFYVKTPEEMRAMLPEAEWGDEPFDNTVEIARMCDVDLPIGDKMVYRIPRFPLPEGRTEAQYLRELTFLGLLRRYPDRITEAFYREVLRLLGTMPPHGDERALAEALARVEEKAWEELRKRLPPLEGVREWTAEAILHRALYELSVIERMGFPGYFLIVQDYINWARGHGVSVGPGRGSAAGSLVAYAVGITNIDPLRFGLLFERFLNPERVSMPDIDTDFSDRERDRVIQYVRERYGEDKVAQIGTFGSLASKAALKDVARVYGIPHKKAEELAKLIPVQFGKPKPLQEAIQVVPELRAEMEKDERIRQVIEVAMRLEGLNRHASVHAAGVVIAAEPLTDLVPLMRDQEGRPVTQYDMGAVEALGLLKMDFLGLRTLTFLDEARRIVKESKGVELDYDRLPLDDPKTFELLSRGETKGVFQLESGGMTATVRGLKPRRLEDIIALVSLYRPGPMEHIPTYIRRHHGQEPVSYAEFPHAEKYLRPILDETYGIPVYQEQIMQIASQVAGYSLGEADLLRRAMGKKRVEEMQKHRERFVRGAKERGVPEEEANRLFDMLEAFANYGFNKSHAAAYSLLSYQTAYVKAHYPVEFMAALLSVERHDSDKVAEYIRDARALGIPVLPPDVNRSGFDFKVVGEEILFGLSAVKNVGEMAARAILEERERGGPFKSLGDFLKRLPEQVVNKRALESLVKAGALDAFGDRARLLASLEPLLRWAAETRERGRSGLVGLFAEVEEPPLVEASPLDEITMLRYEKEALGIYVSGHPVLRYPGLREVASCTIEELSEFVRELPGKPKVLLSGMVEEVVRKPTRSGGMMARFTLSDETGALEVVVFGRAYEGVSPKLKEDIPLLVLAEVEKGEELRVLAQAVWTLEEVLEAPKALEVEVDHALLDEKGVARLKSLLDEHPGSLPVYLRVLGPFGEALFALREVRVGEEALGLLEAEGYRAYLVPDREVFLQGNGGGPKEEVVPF
# B1: primer-template DNA, ddC-terminated primer (dsDNA)
# DNA 1: CGAAACGACGGCCAGTGCCAC
# DNA 2: TTTTTTGTGGCACTGGCCGTCGTTTCG
# modifications: 2',3'-dideoxycytidine at primer 3' end (incorporated in situ by the polymerase)
# Target: T1, DNA polymerase III alpha subunit …
# Test: X-ray crystallography
binder,measurement,value
B1,binding result,binds
